# ± gives the uncertainty stated by the source.
# Experiment: protein stability index of a GFP-peptide fusion (yeast GPS) (PSI 1-4); higher = more stable; sorted into four equal gates, so the index is relative within each strain
# Method in brief: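 The protein stability index combines read frequencies across sorting gates, each weighted by its gate number and then summed. To obtain those frequencies, a pooled yeast library of GFP fusions to tiled 17-residue yeast protein peptides, on a plasmid also expressing Cherry, was grown to mid-log phase in leucine-free medium. The cells were sorted into four equal gates by GFP/Cherry ratio before plasmid amplification by PCR and Illumina sequencing.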
sequence,measurement,setting,value
DQLAVSPEQIDASPDSL [YCS4],protein stability index,doa10∆,1.62 ± 0.071
same,protein stability index,pdr5∆,1.89 ± 0.081
same,protein stability index,san1∆,1.65 ± 0.1
same,protein stability index,ubr1∆,1.86 ± 0.06
EKVNNNATLTPNDSNDE [SWI1],protein stability index,doa10∆,3.26 ± 0.07
same,protein stability index,pdr5∆,3.14 ± 0.057
same,protein stability index,san1∆,3.11 ± 0.063
same,protein stability index,ubr1∆,3.16 ± 0.047
DDDLFETLVLSYFSPIN [YCG1],protein stability index,doa10∆,2.23 ± 0.069
same,protein stability index,pdr5∆,1.44 ± 0.05
same,protein stability index,san1∆,1.36 ± 0.093
same,protein stability index,ubr1∆,1.35 ± 0.032
SLISVLEASLNSITKDN [YJL039C/NUP192],protein stability index,doa10∆,2.46 ± 0.052
same,protein stability index,pdr5∆,2.24 ± 0.038
same,protein stability index,san1∆,2.31 ± 0.048
same,protein stability index,ubr1∆,2.09 ± 0.026
FVFTNEPLTEIKNVIVS [RPP0],protein stability index,doa10∆,1.84 ± 0.057
same,protein stability index,pdr5∆,2.68 ± 0.089
same,protein stability index,san1∆,3.12 ± 0.076
same,protein stability index,ubr1∆,2.73 ± 0.077
KSKGDVDIKGEDLHEKN [NUT1],protein stability index,doa10∆,3.32 ± 0.27
same,protein stability index,san1∆,3.44 ± 0.15
VVTRSKEAFEEEIKQSA [SMC1],protein stability index,doa10∆,3.05 ± 0.14
same,protein stability index,pdr5∆,3.07 ± 0.13
same,protein stability index,san1∆,3.11 ± 0.25
same,protein stability index,ubr1∆,3.1 ± 0.089
KKNVWRSINNLIQEHDS [BRN1],protein stability index,doa10∆,3.16 ± 0.1
same,protein stability index,pdr5∆,2.75 ± 0.075
same,protein stability index,san1∆,2.63 ± 0.052
same,protein stability index,ubr1∆,2.57 ± 0.041
AATMTSAPPPALPHVEI [RGR1],protein stability index,doa10∆,2.52 ± 0.072
same,protein stability index,pdr5∆,2.83 ± 0.083
same,protein stability index,san1∆,2.49 ± 0.079
same,protein stability index,ubr1∆,2.3 ± 0.055
KSSNDTIEHAADITDGN [YCG1],protein stability index,doa10∆,2.98 ± 0.25
same,protein stability index,pdr5∆,3.16 ± 0.2
same,protein stability index,san1∆,3.23 ± 0.17
same,protein stability index,ubr1∆,3.3 ± 0.15
NTRKNMSISLESSKALA [DIS3],protein stability index,doa10∆,1.96 ± 0.082
same,protein stability index,pdr5∆,2.24 ± 0.1
same,protein stability index,san1∆,1.96 ± 0.13
same,protein stability index,ubr1∆,2.08 ± 0.078
SLKQYAGNLITTPEINN [SRP68],protein stability index,doa10∆,2.69 ± 0.073
same,protein stability index,pdr5∆,2.88 ± 0.061
same,protein stability index,san1∆,2.92 ± 0.076
same,protein stability index,ubr1∆,2.31 ± 0.041
AAPSGNYKQLTLVGGGA [RRP43],protein stability index,doa10∆,1.36 ± 0.093
same,protein stability index,pdr5∆,2.33 ± 0.07
same,protein stability index,san1∆,2.23 ± 0.13
same,protein stability index,ubr1∆,2.5 ± 0.079
DYIKDEQRHLKRELKRA [RPT3],protein stability index,doa10∆,2.25 ± 0.058
same,protein stability index,pdr5∆,2.06 ± 0.056
same,protein stability index,san1∆,1.98 ± 0.14
same,protein stability index,ubr1∆,1.68 ± 0.037
SRVINVVRAASSLASQD [RRP6],protein stability index,doa10∆,1.98 ± 0.082
same,protein stability index,pdr5∆,2.47 ± 0.074
same,protein stability index,san1∆,2.57 ± 0.18
AITNTGPREDTTRVGGG [RPS5],protein stability index,doa10∆,3.04 ± 0.074
same,protein stability index,pdr5∆,3.05 ± 0.073
same,protein stability index,san1∆,2.9 ± 0.07
same,protein stability index,ubr1∆,3.18 ± 0.054
RMRVSVLEKYEVIGYIA [SSN3],protein stability index,doa10∆,1.4 ± 0.14
same,protein stability index,pdr5∆,1.56 ± 0.2
same,protein stability index,san1∆,1.09 ± 0.27
same,protein stability index,ubr1∆,1.15 ± 0.049
DYAQLDHLVSSIPMGGQ [ARP9],protein stability index,doa10∆,2.1 ± 0.065
same,protein stability index,pdr5∆,2.36 ± 0.071
same,protein stability index,san1∆,2.36 ± 0.067
same,protein stability index,ubr1∆,2.15 ± 0.053
SQPTAAGGPDMTTPQNI [DSN1],protein stability index,doa10∆,1.82 ± 0.065
same,protein stability index,pdr5∆,1.9 ± 0.063
same,protein stability index,san1∆,1.89 ± 0.1
same,protein stability index,ubr1∆,1.36 ± 0.053
SRFTNVSVIAPESQGQH [YMR153W/NUP53],protein stability index,doa10∆,3 ± 0.09
same,protein stability index,pdr5∆,3.39 ± 0.087
same,protein stability index,san1∆,2.6 ± 0.12
same,protein stability index,ubr1∆,3.19 ± 0.048
YVSDSDDSSSDNDSLTD [SIR4],protein stability index,doa10∆,2.51 ± 0.051
same,protein stability index,pdr5∆,2.94 ± 0.038
same,protein stability index,san1∆,2.67 ± 0.056
same,protein stability index,ubr1∆,2.63 ± 0.047
KVTSYDITGDIRNEGSD [ISW2],protein stability index,doa10∆,3.15 ± 0.17
same,protein stability index,pdr5∆,3.04 ± 0.21
same,protein stability index,san1∆,3.21 ± 0.14
LPEKVNFRTMQQQQMQQ [SSN2],protein stability index,doa10∆,2.3 ± 0.18
same,protein stability index,pdr5∆,2.75 ± 0.18
same,protein stability index,san1∆,2.46 ± 0.19
same,protein stability index,ubr1∆,2.38 ± 0.14
VLYQSNATHDEDEFIVQ [SWP82],protein stability index,doa10∆,3.05 ± 0.041
same,protein stability index,pdr5∆,3.14 ± 0.038
same,protein stability index,san1∆,3.11 ± 0.039
same,protein stability index,ubr1∆,3.151 ± 0.028
SSSMDMQANTNALRRNL [SSN3],protein stability index,doa10∆,2.63 ± 0.055
same,protein stability index,pdr5∆,2.33 ± 0.05
same,protein stability index,san1∆,3.13 ± 0.046
same,protein stability index,ubr1∆,2.28 ± 0.043
GRLNTLVISLAATNETF [IRR1],protein stability index,doa10∆,1.64 ± 0.088
same,protein stability index,pdr5∆,1.38 ± 0.065
same,protein stability index,san1∆,1.1 ± 0.23
same,protein stability index,ubr1∆,1.17 ± 0.06
LLVQKRFKYAPGTIVLY [RPS3],protein stability index,doa10∆,2.51 ± 0.12
same,protein stability index,pdr5∆,1.87 ± 0.073
same,protein stability index,san1∆,1.72 ± 0.13
same,protein stability index,ubr1∆,1.31 ± 0.039
LMTKLNSFKLFKAEKLQ [RPC17],protein stability index,doa10∆,1.97 ± 0.059
same,protein stability index,pdr5∆,1.88 ± 0.054
same,protein stability index,san1∆,1.92 ± 0.06
same,protein stability index,ubr1∆,1.75 ± 0.04
QTLSSHLEALQPLFSTV [PGD1],protein stability index,doa10∆,1.96 ± 0.031
same,protein stability index,pdr5∆,1.97 ± 0.037
same,protein stability index,san1∆,2.2 ± 0.052
same,protein stability index,ubr1∆,2.49 ± 0.034
FEEDSDLALPPPPPPPP [PRP8],protein stability index,doa10∆,3.08 ± 0.063
same,protein stability index,pdr5∆,3.25 ± 0.066
same,protein stability index,san1∆,3.27 ± 0.072
same,protein stability index,ubr1∆,3.23 ± 0.062
QYILQIVSFIVNCFHED [YJL039C/NUP192],protein stability index,doa10∆,1.42 ± 0.061
same,protein stability index,pdr5∆,1.91 ± 0.062
same,protein stability index,san1∆,2.18 ± 0.077
same,protein stability index,ubr1∆,2.3 ± 0.057
FRHHVQIQQQQQKQQQQ [SNF5],protein stability index,doa10∆,2.71 ± 0.17
same,protein stability index,san1∆,3.07 ± 0.13
same,protein stability index,ubr1∆,2.57 ± 0.083
QKTRVKLLFDHDELDMN [ESC2],protein stability index,doa10∆,2.87 ± 0.16
same,protein stability index,pdr5∆,3.36 ± 0.12
same,protein stability index,san1∆,3.02 ± 0.076
same,protein stability index,ubr1∆,3.12 ± 0.093
TKPSETPATIVKKPTFT [YOR098C/NUP1],protein stability index,doa10∆,2.91 ± 0.05
same,protein stability index,pdr5∆,3.08 ± 0.057
same,protein stability index,san1∆,3.09 ± 0.043
same,protein stability index,ubr1∆,3.04 ± 0.054
KNSTSSMTAVPKPLKFL [RPN1],protein stability index,doa10∆,2.03 ± 0.071
same,protein stability index,pdr5∆,2.31 ± 0.072
same,protein stability index,san1∆,1.98 ± 0.062
same,protein stability index,ubr1∆,2.15 ± 0.069
VRMRLAQLTHSLRRIRD [MED8],protein stability index,doa10∆,1.45 ± 0.041
same,protein stability index,pdr5∆,2.04 ± 0.063
same,protein stability index,san1∆,1.49 ± 0.087
same,protein stability index,ubr1∆,1.91 ± 0.049
KIPEREEKSNEVKTPKI [SIR4],protein stability index,pdr5∆,3.24 ± 0.21
same,protein stability index,san1∆,3.46 ± 0.21
same,protein stability index,ubr1∆,3.44 ± 0.15
NHFIFNVESAGAMTPEE [RPC40],protein stability index,doa10∆,2.01 ± 0.059
same,protein stability index,pdr5∆,2.02 ± 0.061
same,protein stability index,san1∆,2.4 ± 0.062
same,protein stability index,ubr1∆,2.47 ± 0.045
YNRHKLQELIVNGPNVH [RPO31],protein stability index,doa10∆,1.19 ± 0.11
same,protein stability index,pdr5∆,1.48 ± 0.1
same,protein stability index,san1∆,1.2 ± 0.17
same,protein stability index,ubr1∆,1.22 ± 0.095
VNGSPITLVEPEILRFK [RPS16A],protein stability index,pdr5∆,2.79 ± 0.15
same,protein stability index,ubr1∆,3.36 ± 0.17
LSNIPLLLITHHSWSQS [ARP9],protein stability index,doa10∆,2.25 ± 0.075
same,protein stability index,pdr5∆,1.6 ± 0.045
same,protein stability index,san1∆,1.51 ± 0.073
same,protein stability index,ubr1∆,1.96 ± 0.047
LHQHVVLKCLKSLESQR [RPC34],protein stability index,doa10∆,2.77 ± 0.11
same,protein stability index,pdr5∆,2.58 ± 0.083
same,protein stability index,san1∆,2.41 ± 0.095
same,protein stability index,ubr1∆,2.53 ± 0.11
PLSDLKKRSQAKMNAKT [RPC82],protein stability index,doa10∆,3.21 ± 0.08
same,protein stability index,pdr5∆,3.4 ± 0.081
same,protein stability index,san1∆,3.05 ± 0.066
same,protein stability index,ubr1∆,3.32 ± 0.045
NSIKNVPPILIILPLDN [SSN2],protein stability index,doa10∆,2.01 ± 0.21
same,protein stability index,pdr5∆,1.61 ± 0.11
same,protein stability index,ubr1∆,1.82 ± 0.068
FIPNKQLNCVIDRVNGI [RPN7],protein stability index,doa10∆,2.47 ± 0.13
same,protein stability index,pdr5∆,2.75 ± 0.21
same,protein stability index,san1∆,2.73 ± 0.18
same,protein stability index,ubr1∆,3.08 ± 0.18
PAIPPVIDLEKIKFDES [BRR2],protein stability index,doa10∆,2.85 ± 0.093
same,protein stability index,pdr5∆,2.84 ± 0.093
same,protein stability index,san1∆,2.67 ± 0.086
same,protein stability index,ubr1∆,2.77 ± 0.082
MIATNVAARGLDIPNVS [PRP28],protein stability index,doa10∆,2.58 ± 0.17
same,protein stability index,san1∆,2.2 ± 0.16
TAQEINFKMLVLLATWN [IRR1],protein stability index,doa10∆,1.84 ± 0.039
same,protein stability index,pdr5∆,2.04 ± 0.047
same,protein stability index,san1∆,2.14 ± 0.051
same,protein stability index,ubr1∆,1.83 ± 0.031
ERSELLRLFNAPDSEYL [SNF2],protein stability index,doa10∆,3.02 ± 0.044
same,protein stability index,pdr5∆,2.8 ± 0.051
same,protein stability index,san1∆,2.87 ± 0.045
same,protein stability index,ubr1∆,2.77 ± 0.045
EPELRVLSTEEILNIFK [RPO21],protein stability index,doa10∆,3.43 ± 0.22
same,protein stability index,pdr5∆,3.45 ± 0.17
same,protein stability index,san1∆,3.51 ± 0.084
same,protein stability index,ubr1∆,3.55 ± 0.23
RAKAMKFADGFLIHSGQ [RPS3],protein stability index,doa10∆,3.4 ± 0.11
same,protein stability index,pdr5∆,3.03 ± 0.093
same,protein stability index,san1∆,3.13 ± 0.061
same,protein stability index,ubr1∆,3.22 ± 0.037
